Values of other authors, collected in patent US20160258855A1, “Methods and Apparatus to Determine Diffusion Properties of Porous Structures for Drug Delivery” (ForSight Vision4, Inc., priority 2010, published 2016).
Like-named read-outs stand apart in the source and are kept apart here.

How the values were obtained:
[1] = human eye, intravitreal, cited from earlier work
[2] = rabbit eye, intravitreal, cited from earlier work
[3] = monkey eye, intravitreal, cited from earlier work

Substance: ranibizumab [Lucentis]
- half-life in vitreous [1]: about nine
- half-life in vitreous ([1]; listed as ranibizumab): ~220 h
- half-life in vitreous [2]: two to four
- half-life in vitreous ([2]; listed as ranibizumab): approximately 3 days
- half-life in vitreous [3]: two to four
- half-life in vitreous ([3]; listed as ranibizumab): approximately 3 days
